Data taken from article PMC4061085.

How the values were obtained:
[1] = biological target: CK1ε from human as HIS-tagged fusion protein (human) (UniProt P49674)
[2] = biological target: CK1δ KD (kinase domain of CK1δ) (rat) (UniProt Q06486)
[3] = biological target: CK1δ from rat as GST-tagged fusion protein (rat) (UniProt Q06486)

Chain of UniProt P49674 (P49674 whole entry, the tested form may be a part): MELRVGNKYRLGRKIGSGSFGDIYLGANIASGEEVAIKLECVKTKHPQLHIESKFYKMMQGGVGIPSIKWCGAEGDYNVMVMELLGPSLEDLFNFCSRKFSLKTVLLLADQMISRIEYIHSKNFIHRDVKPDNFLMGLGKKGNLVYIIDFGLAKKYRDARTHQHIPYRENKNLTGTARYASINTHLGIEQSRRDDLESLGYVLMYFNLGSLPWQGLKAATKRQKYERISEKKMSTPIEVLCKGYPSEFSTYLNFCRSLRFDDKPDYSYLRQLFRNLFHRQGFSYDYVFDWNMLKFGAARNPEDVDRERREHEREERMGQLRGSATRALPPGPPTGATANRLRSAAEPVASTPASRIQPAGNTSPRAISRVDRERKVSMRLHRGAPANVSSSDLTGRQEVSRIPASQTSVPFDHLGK

Km of phosphorylation of GST-tubulin by the CK1 isoform (Michaelis-Menten kinetics, in vitro kinase assay, 32P incorporation, 30 min at 30°C) [1] [µM] | Km of phosphorylation of GST-tubulin by the CK1 isoform (Michaelis-Menten kinetics, in vitro kinase assay, 32P incorporation, 30 min at 30°C) [2] [µM] | Km of phosphorylation of GST-tubulin by the CK1 isoform (Michaelis-Menten kinetics, in vitro kinase assay, 32P incorporation, 30 min at 30°C) [3] [µM] | Substance
0.329 | 0.266 | 0.205 | Recombinant human α-tubulin1B (GST-tubulin) (from UniProt P68363 1-451) (natural protein)
0.602 | 0.438 | 0.337 | Recombinant human α-tubulin4A (GST-tubulin) (from UniProt P68366 1-448) (natural protein)
1.41 | 1.47 | 1.17 | Recombinant human β-tubulin2A (GST-tubulin) (from UniProt Q13885 1-445) (natural protein)
